Substitutions are numbered along the chain they refer to. Names and notes keep the numbering of the source.
B1: 29 nt RNA A1067G (structured_RNA)
RNA: GGAUGUUGGCUUGGAAGCAGCCAUCAUUU
B2: 29 nt RNA A1067C (structured_RNA)
RNA: GGAUGUUGGCUUCGAAGCAGCCAUCAUUU
B3: 29 nt RNA wt A1067 (structured_RNA)
RNA: GGAUGUUGGCUUAGAAGCAGCCAUCAUUU
B4: 29 nt RNA A1067U (structured_RNA)
RNA: GGAUGUUGGCUUUGAAGCAGCCAUCAUUU
B5: 58 nt RNA A1067G (structured_RNA)
RNA: GGCCAGGAUGUUGGCUUGGAAGCAGCCAUCAUUUAAAGAAAGCGUAAUAGCUCACUGGCU
B6: 58 nt RNA A1067C (structured_RNA)
RNA: B5 RNA with G18C
B7: 58 nt RNA A1067U (structured_RNA)
RNA: B5 RNA with G18U

How the values were obtained:
[1] = biological target: His-NHR (Streptomyces actuosus, UniProt P52391 1-274); test: fluorescence anisotropy; 5 mM Mg2+; Anisotropy: 25 mM HEPES-KOH pH 7.5, 25 mM NH4Cl, 5 mM MgCl2, 5 mM DTT, 2.5 uM RNA, 0-8 uM NHR, temperature not stated; EMSA: 25 mM HEPES-KOH pH 8.0, 25 mM NH4Cl, 5 mM MgCl2, 5 mM DTT, 4 C, 1 h, 6-10 uM RNA; conditions: protein: recombinant, tags: N-terminal His6 (pET-28a), chain copies: 2
[2] = biological target: HA-His-NHR-R135A (His-NHR-M) (Streptomyces actuosus, UniProt P52391 1-274, R135A); test: EMSA; 5 mM Mg2+; R135A homodimer, less efficient than heterodimer; Anisotropy: 25 mM HEPES-KOH pH 7.5, 25 mM NH4Cl, 5 mM MgCl2, 5 mM DTT, 2.5 uM RNA, 0-8 uM NHR, temperature not stated; EMSA: 25 mM HEPES-KOH pH 8.0, 25 mM NH4Cl, 5 mM MgCl2, 5 mM DTT, 4 C, 1 h, 6-10 uM RNA; conditions: protein: recombinant; tags: HA, N-terminal His6; chain copies: 2; label: 3' fluorescein (anisotropy); none (EMSA, SYBR Gold); hairpin
[3] = biological target: HA-His-NHR-R135A subunit of heterodimer;Flag-Trx-NHR subunit of heterodimer (Streptomyces actuosus;Streptomyces …, UniProt P52391;P52391 1-274;1-274, R135A|); test: EMSA; 5 mM Mg2+; WT/R135A heterodimer, more efficient than R135A homodimer; Anisotropy: 25 mM HEPES-KOH pH 7.5, 25 mM NH4Cl, 5 mM MgCl2, 5 mM DTT, 2.5 uM RNA, 0-8 uM NHR, temperature not stated; EMSA: 25 mM HEPES-KOH pH 8.0, 25 mM NH4Cl, 5 mM MgCl2, 5 mM DTT, 4 C, 1 h, 6-10 uM RNA; conditions: protein: recombinant;recombinant, tags: HA, N-terminal His6;Flag, thioredoxin, copies: 1;1, label: 3' fluorescein (anisotropy), none (EMSA, SYBR Gold), hairpin
[4] = label: 3' fluorescein, folded single strand

| Binder | Kd ([1]; label: 3' fluorescein, hairpin) [nM] | Kd [1, 4] [nM] | also measured |
| --- | --- | --- | --- |
| B1 | 370 ± 30 |  |  |
| B2 | 460 ± 40 |  |  |
| B3 |  |  | binding result [2]: binds; Kd ([1]; label: 3' fluorescein (anisotropy), none (EMSA, SYBR Gold), hairpin): 370 ± 30 nM; binding result [3]: binds |
| B4 | 630 ± 80 |  |  |
| B5 |  | 770 ± 20 |  |
| B6 |  | 800 ± 20 |  |
| B7 |  | 910 ± 20 |  |
